Results: patent publication US20260049134A1 (UNIVERSITY OF FLORIDA RESEARCH FOUNDATION, published 2026)

T1: DCC
T1 construct: coated protein in the ELISA; also called DCC-His (R&D Systems)
T1 chain: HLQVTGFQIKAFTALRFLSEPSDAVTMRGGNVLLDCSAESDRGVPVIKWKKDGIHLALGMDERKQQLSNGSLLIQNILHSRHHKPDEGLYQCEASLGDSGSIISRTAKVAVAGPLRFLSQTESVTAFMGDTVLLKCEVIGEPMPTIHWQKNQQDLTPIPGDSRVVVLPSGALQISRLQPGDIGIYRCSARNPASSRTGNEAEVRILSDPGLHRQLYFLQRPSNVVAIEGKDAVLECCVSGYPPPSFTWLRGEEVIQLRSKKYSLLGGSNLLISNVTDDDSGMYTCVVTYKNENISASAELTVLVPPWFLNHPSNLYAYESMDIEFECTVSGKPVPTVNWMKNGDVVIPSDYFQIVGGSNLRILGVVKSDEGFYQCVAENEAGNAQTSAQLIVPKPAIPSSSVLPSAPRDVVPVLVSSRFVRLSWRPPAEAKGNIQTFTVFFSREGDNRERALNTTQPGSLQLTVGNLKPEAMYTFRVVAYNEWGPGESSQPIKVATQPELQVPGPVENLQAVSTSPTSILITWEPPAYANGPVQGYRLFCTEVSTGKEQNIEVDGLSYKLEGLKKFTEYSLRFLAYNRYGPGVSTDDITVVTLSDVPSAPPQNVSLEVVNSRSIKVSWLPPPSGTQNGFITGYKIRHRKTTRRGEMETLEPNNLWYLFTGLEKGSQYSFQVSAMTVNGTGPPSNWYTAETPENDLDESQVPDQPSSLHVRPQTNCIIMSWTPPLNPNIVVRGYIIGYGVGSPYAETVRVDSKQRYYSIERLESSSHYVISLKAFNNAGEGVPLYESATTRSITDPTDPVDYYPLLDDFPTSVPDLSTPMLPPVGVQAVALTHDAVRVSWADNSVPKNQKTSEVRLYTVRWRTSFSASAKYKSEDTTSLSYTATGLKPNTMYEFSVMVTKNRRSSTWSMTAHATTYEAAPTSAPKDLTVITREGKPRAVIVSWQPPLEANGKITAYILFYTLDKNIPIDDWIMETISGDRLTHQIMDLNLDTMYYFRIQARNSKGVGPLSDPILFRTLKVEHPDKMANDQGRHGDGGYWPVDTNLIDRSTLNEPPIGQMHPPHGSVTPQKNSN

T2: SLAMF7
T2 construct: coated protein in the ELISA; also called SLAMF7-StrepTag
T2 chain: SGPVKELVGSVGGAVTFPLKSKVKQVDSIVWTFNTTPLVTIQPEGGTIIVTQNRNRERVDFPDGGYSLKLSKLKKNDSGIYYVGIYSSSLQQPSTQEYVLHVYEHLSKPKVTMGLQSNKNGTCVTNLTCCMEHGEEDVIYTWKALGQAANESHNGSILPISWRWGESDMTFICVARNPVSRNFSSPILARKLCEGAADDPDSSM

T3: GARS, endogenous in H929 multiple myeloma cells (human, UniProt P41250 37-739, limits assumed)
T3 construct: Native protein pulled down from H929 lysates; also called Glycyl-tRNA synthetase; GlyRS
T3 sequence: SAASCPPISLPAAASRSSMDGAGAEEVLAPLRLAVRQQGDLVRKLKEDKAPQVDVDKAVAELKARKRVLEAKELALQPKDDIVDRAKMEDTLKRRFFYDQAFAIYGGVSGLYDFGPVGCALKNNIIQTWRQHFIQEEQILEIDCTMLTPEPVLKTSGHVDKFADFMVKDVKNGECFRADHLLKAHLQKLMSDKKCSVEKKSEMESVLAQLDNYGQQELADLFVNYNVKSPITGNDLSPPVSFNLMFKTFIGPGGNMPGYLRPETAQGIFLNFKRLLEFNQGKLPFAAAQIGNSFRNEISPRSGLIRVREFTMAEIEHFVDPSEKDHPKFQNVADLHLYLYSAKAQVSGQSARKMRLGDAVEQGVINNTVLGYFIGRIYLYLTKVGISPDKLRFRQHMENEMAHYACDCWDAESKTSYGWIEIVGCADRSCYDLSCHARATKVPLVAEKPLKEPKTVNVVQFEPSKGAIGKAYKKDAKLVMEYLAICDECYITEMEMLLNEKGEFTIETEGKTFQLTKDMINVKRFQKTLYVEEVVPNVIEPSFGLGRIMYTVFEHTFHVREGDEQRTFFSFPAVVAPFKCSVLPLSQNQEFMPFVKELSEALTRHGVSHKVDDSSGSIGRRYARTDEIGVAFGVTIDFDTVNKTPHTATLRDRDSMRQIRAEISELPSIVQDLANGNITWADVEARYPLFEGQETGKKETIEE


Experiments:
DCC = target: T1, DCC; assay: ELISA on coated DCC-His
Method: (§1) Recombinant purified ECDs (50-150 ng) of each putative target protein were coated, incubated with 150 ng of the indicated primary antibody, and binding was detected using a peroxidase-conjugated anti-human Fab secondary antibody. Heatmap represents averages of technical triplicates. (8B) Target validation via siRNA knockdown. H929 cells were transfected with siRNA pools targeting the putative antibody targets ICAM1, CADM1, and PTPRG. Cells were then subjected to cognate IgG binding analysis via flow cytometry. (NT, non-targeting siRNA).
(§2) ELISA ELISA was conducted as described previously. Briefly, 50-150 ng of antigen was coated overnight in half-area 96-well plates at 4° C., blocked with 3% BSA at 37° C. for 1 h, and 150 ng of chimeric rabbit/human IgG1 was added, incubating for 2 h at 37° C. […] After incubating at 37° C. for 15 min-1 h (depending on intensity of controls), data were acquired using a SpectraMax M5 plate reader (Molecular Devices).

SLAMF7 = target: T2, SLAMF7; assay: ELISA on coated SLAMF7-StrepTag
Method: as §1, §2

[1] = target: T3, GARS, endogenous in H929 multiple …; assay: flow cytometry, H929 + vehicle; None 513; surface target GARS putative
[2] = target: T3, GARS, endogenous in H929 multiple …; assay: flow cytometry, H929 + CDH18 siRNA; None 443; surface target GARS putative
PTP4A3 (PRL-3) = target: T4, PTP4A3 (PRL-3); assay: ELISA on coated His-PTP4A3, 150 ng IgG1; None 0.085
T4 construct: coated protein in the ELISA; also called His-PTP4A3 (R&D Systems)
T4 sequence (chain, as listed by the source limits assumed): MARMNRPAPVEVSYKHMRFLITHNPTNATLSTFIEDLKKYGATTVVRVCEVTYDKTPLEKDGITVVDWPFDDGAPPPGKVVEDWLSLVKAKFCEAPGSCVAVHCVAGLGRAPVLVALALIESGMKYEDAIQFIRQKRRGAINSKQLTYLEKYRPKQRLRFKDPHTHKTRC
Method: as §1, §2

| Binder | binding result (DCC) | binding result (SLAMF7) | mAb binding (MFI) [1] | mAb binding (MFI) [2] | ELISA Absorbance (405 nm-570 nm) (PTP4A3 (PRL-3)) |
| --- | --- | --- | --- | --- | --- |
| HW-81 chimeric rabbit-human IgG1 LA/LA/PG (antibody, V domains shown, Fc-silenced (L234A/L235A/P329G) IgG1, lambda; Alexa Fluor 647-labeled in single-step flow cytometry; Cluster C-45) VH: QKQLVESGGGLVTPGGTLTLTCTVSGFSLSSNGVSWVRQAPGKGLEYIGLIRSIGSTYYATWAKGRFTISKTSTTVDLKITSPTTEDTATYFCARGGYRNGFKLWGPGTLVTVSS VL: QPVLTQSPSVSAALGASAKLTCTLSSAHKTYYIEWYQQQHPGKAPRYLMQLQSDGSYTKGTGVPDRFSGSSSGADRYLIISSVQAEDEADYICGVIDSAVYVFGGGTQLTVTG | no binding (tested: 150 ng IgG1 per well) | no binding (tested: 150 ng IgG1 per well) | 682000 | 193000 | 0.08 |
| HW-16 chimeric rabbit-human IgG1 LA/LA/PG (antibody, V domains shown, Fc-silenced (L234A/L235A/P329G) IgG1, kappa; Alexa Fluor 647-labeled in single-step flow cytometry; Cluster C-45) VH: QSLEESGGRLVTPGTPLTLTCTASGFSLSSYAMSWVRQAPGKGLEWIGTMPTGGGTYYASWAKGRFTISKTSTTVDLQITSPTTEDTATYFCAKHWNIWGPGTLVTISS VL: DIVLTQTPSSTSTAVGDTVTINCRASQSIGRNLAWFQQKPGQPPKLLIYRASNLASGVPSRFKGSGSRTQFTLTISGVQREDAATYYCLGSYSSSDTAFGGGTELEILR |  |  | 61100 | 174000 | 0.105 |
| HW-56 chimeric rabbit-human IgG1 LA/LA/PG (antibody, V domains shown, Fc-silenced (L234A/L235A/P329G) IgG1, kappa; Alexa Fluor 647-labeled in single-step flow cytometry; Cluster C-45) VH: QSVKESEGGLFKPTDTLTLTCTASGFTVSTNAVTWVRQAPGNGLEYIGTIGRSGSAYFASWAKRRSTLTRDINLNTVTLKMTSLTAADTATYFCVRGSPGYRTAISIWGPGTLVTISS VL: AVMTQTPSSTSAAVEGTVTINCQASQSISNRLSWFQQKPGQPPKLLIYQASTLASGVPSRFKGSGSGTEFTLTISGVQREDAATYYCLGSYSSSDASFGGGTKLEIKR | no binding (tested: 150 ng IgG1 per well) |  | 481000 | 400000 | 0.104 |
| HW-8 chimeric rabbit-human IgG1 LA/LA/PG (antibody, V domains shown, Fc-silenced (L234A/L235A/P329G) IgG1, kappa; Alexa Fluor 647-labeled in single-step flow cytometry; Cluster C-45) VH: QSLEESGGRLVTPGTPLTLTCTVSGFSLSSYAMSWVRQAPGKGLEWIGAISTGGSTTYASWAKGRFTISKTSSTTVDLKMTSLTTEDTATYFCVRHFRLWGPGTLVTISS VL: QVLTQTPSSVSAAVGGTVTIKCQASQSIGSALAWFQQKPGQRPKLLIYRASNLASGVPSRFKGSGSGTEFALTISGVQREDAATYYCLGGAAAVWAFGAGTNVEIKR | no binding (tested: 150 ng IgG1 per well) | no binding (tested: 150 ng IgG1 per well) | 16700 | 75300 | 0.075 |
